Measurements published in the supplement of paper PMC12042874.
± gives the uncertainty stated by the source.

assay: amyloid nucleation score (Sup35N fusion, yeast selection) (log enrichment); library NNK3; higher = more nucleation; inactive = no reads after selection
Method in brief: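 The nucleation score, computed with DiMSum, is the log enrichment of output over input reads, centred on the mode score of non-aggregating sequences. Sequences with under 100 input reads were dropped. Reads were generated by Illumina sequencing of plasmid inserts from psi-negative yeast with Sup35N fused to peptides of 20 random codons, induced with 100 μM copper sulfate for 24 hours and grown 7 days at 30°C on medium lacking adenine and uracil.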

Row | Substance | amyloid nucleation score
1 | DFYGYSY | inactive
2 | YHLLFIVKAYIGVILNFLRS | inactive
3 | VIMVSSRDQADLCESVMQM | inactive
4 | HDKAVQEVGQGCGE | 1.34 ± 0.11
5 | SLSSRGLYLSKDLMPILNYR | inactive
6 | FLIVGFPGNKLGC | 0.848 ± 0.1
7 | HNLMYDRYP | inactive
8 | STWRASIVPSFMVRGCWSIK | inactive
9 | NLMEYSAC | 0.182 ± 0.28
10 | FVSILLYYMPVNCLNRKTIN | inactive
11 | VALAGNYCSANVVHCMFLNL | inactive
12 | VHHEILHHGLFGEMSCVVEC | inactive
13 | YALSVLVSRYQWSGWHYLYP | inactive
14 | CFFEVKRSHSIRVFRIGCGV | inactive
15 | YVLKLSRYMPN | inactive
16 | ANPFFSLDK | inactive
17 | YWLGA | inactive
18 | FDRLNRDDVIFPSRDFNVSS | inactive
19 | KGYRINSNFNKFNKPLCSAI | inactive
20 | YISEWSLSP | 0.909 ± 0.13
21 | CYCVGHAVLCRPEHLCSVRL | inactive
22 | VAKVNCTW | -0.431 ± 0.9
23 | YVPIIWYASQHLVPSKSYSA | inactive
24 | FITVNRQNGK | inactive
25 | LNYVCCCIQSPPEFNIS | 3.36 ± 0.07

Row | Substance | amyloid nucleation score
26 | YLNISILFNCVWDKVFFRYH | inactive
27 | TRSGST | inactive
28 | SVESACFTSSWVNHFFTFSN | inactive
29 | AFFWCR | 0.314 ± 0.25
30 | WSSTRLPSMSPCGFIHQGYI | inactive
31 | KNLGIG | inactive
32 | SIKSSISIFKYF | inactive
33 | SAFKAKL | inactive
34 | PGYSFKVSA | -1.06 ± 2.5
35 | GLRNHCPSFLLWASTARGTL | -0.976 ± 2.5
36 | GFLMGSE | inactive
37 | HSVLGMCFSPKGVDVTTLVN | inactive
38 | YSGKYVCAVGF | inactive
39 | IWENNSIML | inactive
40 | HWLRCHEVEKVLVL | inactive
41 | AWWYGLSMYIKKCILGSRFE | inactive
42 | MIMYIGVCVSVGLFEDYAYR | 0.044 ± 0.49
43 | SIEKAILCSCVVSMPIMRGG | 2.3 ± 0.081
44 | SISCCGIILIKNQASMPWAS | 2.96 ± 0.079
45 | LHVYTSILWWTYKVDVWLLS | inactive
46 | GRLNVLRRRPVGRTKRCSKV | inactive
47 | IMCANSEVVKCYCNRTKLEL | 1.08 ± 0.14
48 | LSNPTSRVLSYRTNM | inactive
49 | MMTCF | inactive
50 | WNPCVHTLGI | inactive

Row | Substance | amyloid nucleation score
51 | SRTGVC | -0.227 ± 1.5
52 | DIFTPILMLCWV | inactive
53 | YNSRDDSIKFFFVRSCILTY | inactive
54 | YCFNLFRSARRGDGCAMIGC | inactive
55 | SLLFFRWDIWTVASGYD | inactive
56 | WYHSQNVINCRQSVVTMKHN | inactive
57 | LRPNLQSDVPRRYTMCGTHA | inactive
58 | SSFLFVKLLIMNRLVQKIYA | inactive
59 | SFMRCFNIVWYTSILLRYTW | inactive
60 | FECYRSSLGQWVMLDVSIHW | -0.534 ± 0.87
61 | DLVPVIHGIYWAG | inactive
62 | ADYLLSYACQSTLSHQKKRP | -0.854 ± 1.7
63 | LRTWLL | inactive
64 | SIRKHFPIRNMDELHSARN | inactive
65 | SYFGDYLKIYFFYTQHNLSC | inactive
66 | NGFCCM | inactive
67 | CRLSGEYFIDTDPEVFLALM | 0.397 ± 0.17
68 | VLKARMY | inactive
69 | TGMNNFMKCLGYMSAHVRLI | inactive
70 | RWPEPFSWFRFDYQIRDVVF | inactive
71 | NMLMMWCFLVSYNEKMRKTV | inactive
72 | CSIGVRSVVCS | inactive
73 | NSIQEDV | inactive
74 | PFPQWEKHYYFFAMNYFHFS | 1.75 ± 0.061
75 | CELANFKCLLGSQMFSEPLG | inactive

Row | Substance | amyloid nucleation score
76 | DYYLNLGGK | inactive
77 | KMSLGLRCYSAYKEPLVQGE | -0.055 ± 1.1
78 | KNVTFTCHWTSKSLNMYYEE | 0.512 ± 0.29
79 | TCWLVFSSFPINKLVLRNKT | inactive
80 | KIMSYHIHVMFLLDYMKDRS | 1.28 ± 0.15
81 | ILSILMCLQETNTDYNSMNR | inactive
82 | TAVLH | inactive
83 | KMTGLWLNVAVSDAFLEYDE | 1.46 ± 0.13
84 | RLLSKVSNFREYTSSSVPDV | inactive
85 | MRSYFEDFCGFQAIRS | 1.07 ± 0.14
86 | GLLANWYVQH | inactive
87 | WIDRQLKRGL | inactive
88 | EVIRCRSSEEIPGRTNSMWD | inactive
89 | WQRNFEWIYDPLRAKSWNSI | -0.558 ± 0.76
90 | NSFDSMGSMFANRYRLNFPR | inactive
91 | QGLSRIRTKQGLAWIGLYTV | inactive
92 | ATVTWHYAAWTWLGFRPSSL | inactive
93 | VYRLEVDISTILEGWSG | inactive
94 | YAFKVCS | inactive
95 | FSCPRVSIFGLCSNCMYQWW | 2.43 ± 0.057
96 | HILHLRLDYFLGA | 0.401 ± 0.3
97 | KRYNRFIGHLMTLYRASMGD | -0.714 ± 0.88
98 | TCFSYLIFSCGFHSY | 0.404 ± 0.64
99 | FNFVLALI | 1.69 ± 0.084
100 | LTAYGNVNCV | inactive

Row | Substance | amyloid nucleation score
101 | VFPGTAVNHMESVHGWLVNY | inactive
102 | PRLNMGCMLFSEYTYCQMIL | 1.1 ± 0.14
103 | DVHWISGKSNYSDDNRCYST | inactive
104 | CVSDNSS | -0.003 ± 0.8
105 | WEFAGVVYEWGVWKSVSGYG | 0.336 ± 0.3
106 | YFFSVLG | inactive
107 | VNGNVDKFQKSKSLGTFVTT | inactive
108 | NLCNWLSCSRTSCNLRLR | inactive
109 | FLMNDSCDRTIWFNVFLSNS | 0.7 ± 0.18
110 | LWMFDYKPRLVCQKSV | inactive
111 | SMRQSFQWCYHSAECYVHSG | 0.337 ± 0.31
112 | LISAYVGWDICLASML | inactive
113 | GDMQMW | inactive
114 | NGINNCSEIKHVCTGLANPV | inactive
115 | AYYNMK | -0.111 ± 0.21
116 | MFSCWYIISWCIEVHDGVKI | inactive
117 | SRKVRGYLLMTNFVCLSNYV | inactive
118 | FCPTVCQFMVPPPHPSKKLY | inactive
119 | YKFLLFFFYSISAFGNDSCD | inactive
120 | RKLTCTSGLA | inactive
121 | ILNRLCRDLYVAFTSSAACR | inactive
